Test results reported in patent US7709240B2, “AMP deaminase originating streptomyces and utilization thereof” (Amano Enzyme Inc., priority 2004, dated 2010).
Several values for one entry are separate records, joined by “and”; a condition that tells them apart may be missing. Equal entries are not always repeated.

Columns and labels:
[1] = Chromatofocusing (isoelectric point); assay type: physicochemical; conditions: 8.12 = main fraction; at least two isozymes
Description: In order to obtain an isoelectric point of AMP deaminase derived from Streptomyces murinus obtained by the above-mentioned method, chromatofocusing was carried out. By using MonoP column (Pharmacia), a starting buffer (Start Buffer) and an elution buffer (Poly buffer 96) were adjusted to pH 4.0 with 0.075M Tris acetate buffer (pH9.3) and with hydrochloric acid, respectively. The final amount was made to 100 ml. Furthermore, Pre-gradient with 3 ml, gradient elution with 30 ml and elution with 30 ml were carried out. From the results, it was thought that at least two isozymes were present (pI 8.12, 7.02), but the isoelectric point of main fraction was 8.12. Various properties, including the isoelectric point obtained from the above-mentioned results, of AMP deaminase derived from Streptomyces murinus, are shown in FIG. 11.

[2] = Relation between pH and activity of purified enzyme; assay type: biochemical
Description: (§1) By using the decrease of OD265 at the time of reaction as an index, the enzyme activity was measured. To 1.5 ml of solution obtained by mixing 0.017M 5′ AMP-2Na and 1/15M phosphate buffer solution (pH 5.6) at the ratio of 1:2, 0.5 ml of sample solution was added so as to obtain a reaction solution, which was reacted at 37° C. for 15 minutes. Then, 2% perchloric acid solution was added so as to stop the reaction and 100 μl of the solution was taken out. Water was added to the solution so that the total amount was 5 ml. Then, OD265 was measured. The value similarly measured at reaction time of 0 minute was defined as a blank. Under the above-mentioned conditions, a case where an absorbance difference is reduced by 0.001 during 60 minutes was defined as one unit.
Next, the relation between pH and activity of the obtained purified enzyme was examined. […] In the wide range of pH from about 4.5 to about 8.5, relatively high activity is observed. In the range of pH from about 5.0 to about 8.0, 70% or more of the reaction property is observed. Furthermore, it is shown that even in the case where pH is 9.0, about 40% of reactivity is obtained.

[3] = pH stability of purified enzyme; assay type: physicochemical; conditions: pH from about 6.5 to about 8.0, 30° C. for 30 minutes; treatment at pH 7.0 = reference
Description: Next, pH stability of the enzyme was examined by the following procedure. An enzyme solution (0.15 ml) containing 2.8 μg protein (total amount) was adjusted to pH 3 to 8 by using McIlvaine buffer solution, and to pH 8 to 10 by using Atkins-pantin buffer solution. The solution was then allowed to stand at 30° C. for 30 minutes. Thereafter, the residual activity (percent with respect to the enzyme activity in the case where the treatment was carried out in pH 7.0) was measured. It is shown that in the range of pH from about 6.0 to about 8.5, relatively high activity is maintained, and in the range of pH from about 6.5 to about 8.0, about 80% or more of activity is maintained.

Substrate specificity [4] = assay type: biochemical; conditions: activity with respect to 5′ AMP = 100%
Text: (§2) It is reported that adenosine deaminase derived from Streptomyces aureofaciens has a wide range of substrate property, for example, catalytic ability of AMP (non-patent document 2). Taken this into consideration, in order to confirm whether deaminase derived from Streptomyces murinus obtained in the above-mentioned method is AMP-deaminase or adenosine-deaminase, the substrate specificity was investigated. Note here that the relative activity, when the enzyme activity with respect to 5′ AMP is defined as 100% is represented. […] In particular, the enzyme acted on 5′dAMP, ADP and ATP favorably. From the above-mentioned results, it was confirmed that the deaminase derived from Streptomyces murinus obtained by the above-mentioned method was AMP deaminase. Furthermore, it was determined that the enzyme was able to be employed preferably in a reaction using 5′dAMP, ADP and ATP as a substrate.
In order to determine whether the deaminase derived from transformant (SAD-1) obtained as mentioned above was AMP deaminase or Adenosine-deaminase, the substrate specificity was investigated. Note here that relative activities when the enzyme activity with respect to 5′ AMP was defined as 100% are represented. […] In particular, the enzyme acted on 5′-dAMP, ADP and ATP favorably. From the above-mentioned results, it was confirmed that deaminase derived from transformant (SAD-1) was similar to AMP deaminase derived from Streptomyces murinus and it was AMP deaminase. Furthermore, it was determined that the enzyme can be preferably used with respect to the reaction using 5′-dAMP, ADP and ATP as a substrate.

Substrate specificity [5] = assay type: biochemical
Substrate specificity [6] = assay type: biochemical; remark: listed apart in the source
Text: as §2, with “From the above-mentioned results, it was confirmed that the deaminase derived from Streptomyces murinus obtained by the above-mentioned method was AMP deaminase.” left out
(§3) Then, in the genus Streptomyces in the stored strains of Amano Enzyme Inc., screening of AMP deaminase producing strain was carried out. […] Furthermore, the residual activity was measured when the activity obtained when treatment was not carried out was defined as 100%. […]
In order to determine whether the deaminase derived from transformant (SAD-1) obtained as mentioned above was AMP deaminase or Adenosine-deaminase, the substrate specificity was investigated. […] Furthermore, it was determined that the enzyme can be preferably used with respect to the reaction using 5′-dAMP, ADP and ATP as a substrate.

[7] = Thermostability of crude enzyme solutions / culture supernatant: residual AMP deaminase activity after 30 minutes; assay type: physicochemical; conditions: enzyme solution or culture supernatant treated 30 minutes at 30-75° C., pH 5.6
Description: as §1, with “unit. […]” for “unit.”
as §3
The thermostability of AMP deaminase produced by transformant (SAD-1) was measured. Culture supernatant of SAD-1 prepared by the above-mentioned method was treated at a predetermined temperature, and the residual AMP deaminase activity was measured (pH 5.6). […]

B1: AMP deaminase derived from Streptomyces murinus: thermostable AMP deaminase enzyme produced by Streptomyces murinus IFO14802; amino acid sequence SEQ ID NO: 1 (protein, listed as Streptomyces murinus)
chain: APPPRQATAAEARTDAYLRSVKDRPAALRAFFRQLPKGGDLHNHLSGAVNTDYLIELAAEDGLCIDATMTAVPSPCGPGTRPAADARTDRAFHDAIVRAWSMQDFPPDENGHDHFFDTFGKFGEVTWRHRGKLLAQVADTVVANNQSYLETMVTPASDGAKQLADQVGWDADLTALHRKLAAGGKLDKLVADARKEADDGDAEFRATEHCGTAKARPACGLTVRWISQASRGSSPVRVFTQLDLGMRLAEADSRFVAVNLVQPEDWDSSLENYSLQMRMVGYLRTVYPKAHVTLHAGELWPGLVKPEALKFHIAEAVDIAHTQRVGHGVDLVHEDNWQRTARTMAARQIAVEVPFSSNAQILGVKGAEHPFTTYRRYGVPVVLATDDPGVSRIDISHEYQYAAATYGLGYPELKDLARASLQYAFLPGASLWQGNPTAQGYHPVAACRAERPGQPVHSAACRRLLDGSARARLEWRQEAAFAAFERAHARG
[1]
  isoelectric point (pI): 8.12 and 7.02
[2]; McIlvaine buffer solution
  optimum pH: around 5.6
[2]; pH 9.0, activity at pH 5.6 = 100%
  relative activity (reactivity): about 40%
[2]; pH from about 5.0 to about 8.0, activity at pH 5.6 = 100%
  relative activity (reaction property): ≥ 70%
[3]
  residual activity: ≥ 80%
Substrate specificity [4]
  action on substrate 2′AMP: did not act on
  action on substrate 3′5′-cyclic AMP (cAMP): also acted on
  action on substrate 3′AMP: also acted on
  action on substrate 5′ AMP: most favorably
  action on substrate 5′dAMP: favorably
  action on substrate ADP: favorably
  action on substrate ATP: favorably
  action on substrate adenine: did not act on
Substrate specificity [5]
  action on substrate 5′-GMP: did not act on
Substrate specificity [6]
  action on adenosine as fraction of the action on 5′-AMP: 1/10
Substrate specificity [6]; activity with respect to 5′ AMP = 100%
  action on substrate Adenosine: also acted on and weak
[7]
  thermostability (residual AMP deaminase activity): extremely excellent
